Laboratory results from patent publication US20210246217A1 (LEADARTIS S L, published 2021).

B1: mouse 4-1BB:hFc chimera (m4-1BB) (Fc fusion, UniProt P20334 24-187, looked up)
chain: VQNSCDNCQPGTFCRKYNPVCKSCPPSTFSSIGGQPNCNICRVCAGYFRFKKFCSSTHNAECECIEGFHCLGPQCTRCEKDCRPGQELTKQGCKTCSLGTFNDQNGTGVCRPWTNCSLDGRSVLKTGTTEKDVVCGPPVVSFSPSTTISVTPEGGPGGHSLQVL
notes: Bought from R&D Systems; also called murine 4-1BB in fusion with human Fc; not shown: human Fc

Columns and labels:
[1] = biological target: murine 4-1BB on the cell surface (mouse) (UniProt P20334); assay: cell-based or functional assay
human CEA (hCEA) = biological target: T1, human CEA (hCEA) (human, UniProt P06731 35-685, limits assumed); assay: BLI, m4-1BB-coated biosensors, hCEA in solution
T1 construct: also called carcinoembryonic antigen
T1 sequence (looked up): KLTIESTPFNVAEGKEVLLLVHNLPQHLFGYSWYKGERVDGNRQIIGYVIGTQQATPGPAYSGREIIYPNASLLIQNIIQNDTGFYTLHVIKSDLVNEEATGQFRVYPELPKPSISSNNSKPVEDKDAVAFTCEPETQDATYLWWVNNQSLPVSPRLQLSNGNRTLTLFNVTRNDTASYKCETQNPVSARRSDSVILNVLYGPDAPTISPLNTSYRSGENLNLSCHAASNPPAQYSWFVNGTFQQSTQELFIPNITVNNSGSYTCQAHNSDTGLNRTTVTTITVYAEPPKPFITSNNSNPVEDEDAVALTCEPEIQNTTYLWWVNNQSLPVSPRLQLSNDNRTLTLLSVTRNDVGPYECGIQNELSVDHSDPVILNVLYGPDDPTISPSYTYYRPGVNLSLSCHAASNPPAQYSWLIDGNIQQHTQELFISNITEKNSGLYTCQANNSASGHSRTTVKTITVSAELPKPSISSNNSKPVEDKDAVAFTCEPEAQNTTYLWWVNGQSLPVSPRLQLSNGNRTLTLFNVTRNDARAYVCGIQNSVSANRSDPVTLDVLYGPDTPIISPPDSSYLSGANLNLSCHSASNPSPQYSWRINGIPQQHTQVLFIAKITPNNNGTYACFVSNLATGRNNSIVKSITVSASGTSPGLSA
Procedure: FIG. 26. Functional characterization of purified 1D8^{N/C}CEA.1 trimerbody. Biolayer interferometry (BLI)-derived sensorgrams from the interactions between immobilized m4-1BB and 1D8^{N/C}CEA. 1 at 4 or 2 nM. Experimental responses are traced in black, and fitting curves are in gray (A). […] 1 bispecificity towards biosensors coated with m4-1BB and hCEA in solution (B and C). Following association with either 1D8^{N/C}CEA.1 or 1D8^N18 (sample indicated with arrows) or kinetics buffer only (sample indicated with arrows), biosensors were transferred into 50 nM of hCEA (black and red) or kinetics buffer only (blue and green).
The ability of 1D8^{N/C}CEA.1 to bind biosensor-immobilized m4-1BB and hCEA in solution at the same time was investigated using biolayer interferometry (BLI) on an Octet RED96 system (Fortebio, Menlo Park, Calif., USA). AR2G biosensors (Fortebio) were activated using s-NHS and EDC, and then coated with 10 μg/mL m4-1BB in 10 mM sodium acetate at pH 6 for 20 minutes, followed by quenching with ethanolamine. After 10 minutes of equilibration in kinetics buffer (PBS with 0.1% BSA and 0.05% Tween20), the coated biosensors were incubated in kinetics buffer containing 4 nM of 1D8^N18, 1D8^{N/C}CEA. 1, or only kinetics buffer for one hour. […]

[2] = biological target: T2, recombinant mouse TNFSF9 (4-1BBL) (mouse, UniProt P41274 104-309, limits assumed); assay: competition ELISA on immobilized m4-1BB
T2 construct: It was detected through a tag in FACS and carried the CF488A label in RICS; also called m4-1BBL; recombinant soluble mouse 4-1BBL
T2 sequence (looked up): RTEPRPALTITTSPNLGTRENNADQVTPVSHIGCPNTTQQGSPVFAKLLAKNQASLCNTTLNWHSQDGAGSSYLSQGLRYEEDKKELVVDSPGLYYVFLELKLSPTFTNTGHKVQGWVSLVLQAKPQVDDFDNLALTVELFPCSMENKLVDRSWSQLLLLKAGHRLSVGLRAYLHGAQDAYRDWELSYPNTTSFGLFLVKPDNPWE
Procedure: Both m4-1BB (3 μg/ml) or hEGFR (5 μg/ml) were immobilized on Maxisorp ELISA plates (NUNC Brand Products, Roskilde, Denmark) overnight at 4° C. After washing and blocking with 200 μl PBS-5% BSA, 100 μl of conditioned media or purified protein solution at 1 μg/ml were added and incubated for 1 hour at room temperature. The wells were washed for three times with PBS0.05% Tween-20, and 100 μl of anti-c-myc mAh or anti-FLAG mAh were added for 1 hour incubation at room temperature. The plate was washed as above described and 100 μl of HRP-conjugated goat anti-mouse IgG were added to each well. Afterwards, the plate was washed and developed using OPD (Sigma-Aldrich). For competition ELISA, m4-1BB (3 μg/ml) was immobilized overnight at 4° C. After washing and blocking, recombinant m4-1BBL was added at desired concentration to the wells for 1 hour. Afterwards, purified antibody solution was serially diluted in blocking buffer, added to the wells and incubated for 1 hour at room temperature. Following standard washing steps, anti-FLAG mAh solution was added for 1 hour. After washing HRP-conjugated goat anti-mouse IgG was added and developed using OPD.

Molecule | lateral mobility at the plasma membrane (diffusion coefficient, RICS), before clustering [1] | lateral mobility at the plasma membrane (diffusion coefficient, RICS), in clusters [1] | binding result (human CEA (hCEA)) | binding result [2]
rat IgG2a anti-mouse 4-1BB (clone 1D8) (antibody) | 1.5 µm^2/sec | 0.35 µm^2/sec | – | –
B1 | – | – | no binding (tested: 50 nM of hCEA) | binds
